The record followed here is article PMC11236199.

For assay [1], the target named is civet SARS CoV SZ3/2003 spike protein ectodomain (civet SARS CoV SZ3/2003 | bacteriophage T4). Briefly: cryo-EM structure.
Assay [2] deals with civet SARS CoV 007/2004 spike protein ectodomain (civet SARS CoV 007/2004 | bacteriophage T4). Nature of the assay: cryo-EM structure.

“civet SARS CoV SZ3/2003 spike protein ectodomain (domain or fragment)” came in with a stoichiometry N in assay [1] of 3.
Consider “civet SARS CoV 007/2004 spike protein ectodomain (domain or fragment)”, for which, in assay [2], the stoichiometry N was determined as 3.

What is called stoichiometry N is the number of molecules, sites or subunits per partner or assembly.
